Numbering of substitutions follows the chain as printed.
Legend:
[1] = molecular target: Dsg3-Fc recombinant fusion protein (Homo sapiens, UniProt P32926); assay: SPR
[2] = molecular target: desmoglein 3 (Dsg3) on Dsg3 ELISA plates (Homo sapiens, UniProt P32926); assay: ELISA
Sequence of desmoglein 3 (Dsg3) on Dsg3 ELISA plates (P32926 50-615): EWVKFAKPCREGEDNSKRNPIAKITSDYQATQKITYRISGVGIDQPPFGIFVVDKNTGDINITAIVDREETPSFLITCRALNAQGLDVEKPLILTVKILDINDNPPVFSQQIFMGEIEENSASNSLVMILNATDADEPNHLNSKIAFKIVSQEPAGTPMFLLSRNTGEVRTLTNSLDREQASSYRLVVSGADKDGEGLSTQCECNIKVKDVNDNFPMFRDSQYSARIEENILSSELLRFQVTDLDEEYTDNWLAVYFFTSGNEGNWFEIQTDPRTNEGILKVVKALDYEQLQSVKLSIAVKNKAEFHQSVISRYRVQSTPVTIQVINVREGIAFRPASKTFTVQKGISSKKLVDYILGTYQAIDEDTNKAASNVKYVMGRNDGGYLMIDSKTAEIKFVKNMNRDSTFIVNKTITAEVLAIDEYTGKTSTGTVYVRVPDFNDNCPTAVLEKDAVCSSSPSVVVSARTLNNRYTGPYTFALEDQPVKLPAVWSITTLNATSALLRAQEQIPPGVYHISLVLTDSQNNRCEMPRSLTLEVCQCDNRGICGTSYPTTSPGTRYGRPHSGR

Sequence of Dsg3-Fc recombinant fusion protein (P32926 50-615): as above

B1: PVE4-8 scFv mAb, somatically mutated (scFv, V domains shown)
VH: QVQLVQSWAEVKKPGASVKFSCKASGYTFTAYYMHWVRQAPGQGLEWMGIINPSGGIATYAEKFQGRVTMTRDTSTTTVYMELSSLRSQDAAVYYCARDRQGFDLDVWGQGTTVTVSS
VL: ELVLTQPPSASGSPGQSVTISCTGTSSDVGGYNYVSWYQQHPGKAPKLMIYEVNKRPSGVPDRFSGSRSGNTASLTVSGLQAEDEADYYCSSYAGSNNLVFGGGTKVTVL
[1]
  Kd: 2.39 nM
  koff: 0.00123 s⁻¹
  kon: 515000 M⁻¹ s⁻¹

B2: 3.2 scFv mAb, somatically mutated (scFv, V domains shown)
VH: QVQLVQSGAEVKKPGASVKVSCKASGYTFTSYYMHWVRQAPGHGLEWMGIINPSGGIANYAQKFQGRVTMTRDTSTSTVYMDLSSLTSEDTAVYYCARDLGGFDFDYWGQGTLVTVSS
VL: ELALTQPPSVSGSPGQSVTISCTGTSSDIGRYNFVSWYQQHPGKAPKLMIYEIYKRPSGVPDRFSGSRSGNTASLTVSGLQAEDEADYYCSSYVGNNDLVFGGGTQLTVL
[1]
  Kd: 1.42 nM
  koff: 0.00231 s⁻¹
  kon: 1.62e+06 M⁻¹ s⁻¹

B3: 4.2 scFv mAb, somatically mutated (scFv, V domains shown)
VH: EVQLVQSGAEVKKPGASLKVSCQASGYIFTSHYIHWVRQAPGQGLEWMGIINPSGGKTTFAQKFQGRVTMTRDTSTRTVYMEMSGLRSEDTAVYYCARDQSLGMDVWGQGTTVIVSS
VL: B1 VL with V3A, A10V, V18I, N54S, P61S, D62N, R68K, V77I, L99W, V107L
[1]
  Kd: 0.182 nM
  koff: 0.000712 s⁻¹
  kon: 3.91e+06 M⁻¹ s⁻¹

B4: F779 scFv, somatically mutated (scFv, V domains shown)
VH: QVQLVQSGADVKKPGASVKVSCTASGNTFTTYSLHWVRQAPGQGLEWMGVIDPSGGSTSYAQKFQGRLTMTRDTSTSTFYMELSSLRSEDTAVYYCARSIESISGRTLGYWGQGTLVTVSS
VL: DIVMTQTPLSSPVTLGQPASISCRSSETLVHSDGNTYLSWLQQRPGQPPRLLIYKISNRFSGVPDRFSGSGAGTDFTLKISRVEAEDVGVYYCLQATEFPYTFGQGTKLEIK
[2]
  binding result: binds
[1]
  Kd: 1.77 nM
  koff: 0.000548 s⁻¹
  kon: 310000 M⁻¹ s⁻¹
